These results are taken from patent US20190315842A1.

Positions count from the first letter of the chain named.

Experiment [1] deals with histones. The experiment is described as follows: AtheNA Multi-Lyte ANA, Ab at 25 ug/ml.
For experiment [2], the target named is histones. Briefly: AtheNA Multi-Lyte ANA, Ab at 50 ug/ml.
Experiment [3] addresses histones. Briefly: AtheNA Multi-Lyte ANA, Ab at 12.5 ug/ml.
The target of experiment [4] is histones. Briefly: AtheNA Multi-Lyte ANA, Ab at 6.25 ug/ml.
Experiment [5] deals with histones. The experiment is described as follows: AtheNA Multi-Lyte ANA, Ab at 28.3 ug/ml.
Experiment [6] addresses histones. The experiment is described as follows: AtheNA Multi-Lyte ANA, Ab at 3.538 ug/ml.
Experiment [7] addresses histones. Briefly: AtheNA Multi-Lyte ANA, Ab at 7.075 ug/ml.
Experiment [8] deals with histones. Briefly: AtheNA Multi-Lyte ANA, Ab at 16.7 ug/ml.
Experiment [9] has as its target histones. The experiment is described as follows: AtheNA Multi-Lyte ANA, Ab at 8.35 ug/ml.
For experiment [10], the target named is histones. The experiment is described as follows: AtheNA Multi-Lyte ANA, Ab at 2.088 ug/ml.
For experiment [11], the target named is histones. The experiment is described as follows: AtheNA Multi-Lyte ANA, Ab at 4.175 ug/ml.
In experiment [12] the target is sclerosis autoantigen (Scl-70) (UniProt P11387). The experiment is described as follows: AtheNA Multi-Lyte ANA, Ab at 50 ug/ml.
Experiment [13] has the same target. The experiment is described as follows: AtheNA Multi-Lyte ANA, Ab at 12.5 ug/ml.
Experiment [14] has the same target. The experiment is described as follows: AtheNA Multi-Lyte ANA, Ab at 6.25 ug/ml.

Sequence of sclerosis autoantigen (Scl-70) (P11387 2-765 limits assumed): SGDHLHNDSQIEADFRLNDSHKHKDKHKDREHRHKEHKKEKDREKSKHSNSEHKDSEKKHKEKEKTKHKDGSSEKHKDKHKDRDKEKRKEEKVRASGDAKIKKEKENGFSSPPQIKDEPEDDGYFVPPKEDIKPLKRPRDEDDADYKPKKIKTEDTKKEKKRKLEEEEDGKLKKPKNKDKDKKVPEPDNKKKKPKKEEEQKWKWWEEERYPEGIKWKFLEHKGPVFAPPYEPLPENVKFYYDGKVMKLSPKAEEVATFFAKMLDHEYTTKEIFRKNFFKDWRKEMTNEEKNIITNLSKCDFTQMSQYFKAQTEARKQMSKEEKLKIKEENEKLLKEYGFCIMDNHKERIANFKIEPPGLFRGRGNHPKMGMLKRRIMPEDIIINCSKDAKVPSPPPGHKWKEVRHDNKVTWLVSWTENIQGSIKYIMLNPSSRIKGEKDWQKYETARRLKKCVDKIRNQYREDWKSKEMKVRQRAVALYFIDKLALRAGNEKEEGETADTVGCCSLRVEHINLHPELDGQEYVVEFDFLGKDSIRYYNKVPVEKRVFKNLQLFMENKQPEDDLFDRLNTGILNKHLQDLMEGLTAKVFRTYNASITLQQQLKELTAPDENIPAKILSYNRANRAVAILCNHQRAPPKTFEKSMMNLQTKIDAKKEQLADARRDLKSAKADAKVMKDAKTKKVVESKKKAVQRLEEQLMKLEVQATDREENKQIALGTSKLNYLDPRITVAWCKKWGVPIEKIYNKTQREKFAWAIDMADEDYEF

B1: Ab7957/293i (antibody, IgG1, V domains shown)
VH: LVESGGGVVPPGKSLRLSCAASGFTFSLYGIHWVRQAPGKGLEWVAVISYDGNTKYYTDSVKGRFTISRDNAKNTIYLQMNSLRLDDTAVYYCAKGAANSATFDFWGRGTMVTVSS
VL: MTQSPDSLTLSLGERATINCRSSRTVLYRSNNKNYLAWYQHKPGQPPKLLMSWASTRETGVPDRFSGSGSGTHFTLTITSLQPEDVAVYYCQQYYSPPWTFGQGTKVEIR
With B1, the AtheNA signal was 9 in experiment [1], 15 in [2], 8 in [3] and 6 in experiment [4].

B2: Ab7970 (antibody, IgG1, V domains shown)
VH: LVESGGGVVQPGRSLRLSCAASGLTFSFYNFHWVRQTPGKGLEWVAGISYDATRTNYAGSVTGRFTISRDNSKKMLYLQMSSLGPQDTAVYHCARDRSDGQLHKVAFDSWGQGALVTVSS
VL: B1 VL
As to B2, the AtheNA signal is 131 in experiment [5], 86 in [6] and 115 in experiment [7].

B3: Ab7960/293i (antibody, IgG1, V domains shown)
VH: LVESGGGVVQPGKSLRLSCVASGFSFSTYGMHWVRQAPGKGLEWVAVMSFDGKTKYYADSVKGRFTISRDNPKNTLYLQMNSLRSEDTAVYYCAKGGAAAAVFDSWGPGILLTVSS
VL: MTQSPNSLAVSLGGRATINCKASQSILYRSNNKNYLAWYQHKAGQPPKLLIYWASTRESGVPERFSGSGSRTDFTLTINGLQAEDVAVYYCQQYYNPPWTFGQGTKVEIK
B3: the AtheNA signal in experiment [2] amounted to 31; in experiment [3] it was 26; in experiment [4], 18.

B4: Ab7979 (antibody, IgG1, V domains shown)
VH: B3 VH with S25T, P108Q
VL: B3 VL with A22T, A43P, G60R, E63D, N79S
On to B4, for which the AtheNA signal in experiment [8] turned out to be 100; in experiment [9] it was 114; in experiment [10] it was 93; in experiment [11], 114.

B5: Ab7961/293i (antibody, IgG1, V domains shown)
VH: B3 VH with S25T, T28S, P108Q
VL: B3 VL with A22T, A43S, E63D, N79S
Turning to B5, the AtheNA signal in [1] came to 77; in [2] it was 77; in [3], 69; in experiment [4] it was 62.

B6: Ab7962/293i (antibody, V domains shown)
VH: LVESGGGLVQPGGSLRLSCAASGFTFSSYEMNWVRQAPGKGLEWVSYISSSGSTIYYADSVKGRFTISRDNAKNSLYLQMNSLRAEDTAVYYCARVEQLAPSPYMDVWGKGTTVTVSS
VL: MTQSLDSLTVSLGERATINCKSSQSLLYTSNNKNYLAWYQQKSGQPPKLLIYWASIRDSGVPDRFSGSGSATDFTLTINNLQAEDVAVYFCQQYYKTPLTFGGGTKVEVR
Consider B6, for which the AtheNA signal in experiment [2] amounted to 4; in experiment [3], 1; in [4], 3.

B7: Ab7955 (antibody, V domains shown)
VH: LVESGGGVVRPGRSLRLSCVASGFTFNAYGMHWVRQGPGKGLEWLAVISYEGKTVYYADSVKDRFTISRDNSRNTVSLHLNNLRGEDTAVYYCAKGSASAAVLQHWGQGTLVSVTS
VL: MTQSPGSLAVSLGSRATINCKSSRSLLYRSNNKNYLAWYQQKPGQSPRLLIYWASSRESGVPDRFSGGGSGTSFTLTISSLQAEDVAVYYCQQYFNPPWTFGQGTKVEIK
Take B7: the AtheNA signal in experiment [2] came to 90; in experiment [12] it was 8; in experiment [3] it was 60; in [13], 3; in experiment [4], 44; in [14], 2.
